Experimental data published in US20250145729A1 (DENALI THERAPEUTICS, published 2025).
Residue numbers refer to the chain shown, from its start. Like-named read-outs stand apart in the source and are kept apart here. One block for each binder: values may come before it.

Key:
[1] = target: T1, circularly permuted human TfR apical domain (human); test: Biacore SPR
T1 construct: TfR residues 326-379 stand N-terminal to 194-296, loop 297-325 deleted; also called huTfR Apical Domain
T1 chain: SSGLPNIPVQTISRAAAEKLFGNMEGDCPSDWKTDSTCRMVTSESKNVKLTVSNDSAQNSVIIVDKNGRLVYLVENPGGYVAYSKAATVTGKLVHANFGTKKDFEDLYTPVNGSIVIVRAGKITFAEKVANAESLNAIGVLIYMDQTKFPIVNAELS

human CD98hc [2] = target: T2, human CD98hc (human, UniProt P08195 109-529); test: SPR (Biacore)
T2 construct: also called huCD98hc; CD98 heavy chain
T2 sequence: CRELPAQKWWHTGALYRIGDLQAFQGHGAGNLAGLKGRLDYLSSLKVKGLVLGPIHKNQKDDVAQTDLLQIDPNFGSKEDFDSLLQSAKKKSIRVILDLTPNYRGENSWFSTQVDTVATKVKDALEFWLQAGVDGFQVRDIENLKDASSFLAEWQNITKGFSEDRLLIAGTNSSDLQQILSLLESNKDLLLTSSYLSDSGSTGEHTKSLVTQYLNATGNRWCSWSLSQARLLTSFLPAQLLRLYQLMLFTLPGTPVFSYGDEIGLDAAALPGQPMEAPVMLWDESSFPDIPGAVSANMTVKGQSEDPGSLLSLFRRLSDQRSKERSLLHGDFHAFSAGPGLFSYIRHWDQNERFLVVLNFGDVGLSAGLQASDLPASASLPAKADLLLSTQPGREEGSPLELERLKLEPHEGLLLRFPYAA
Procedure: Variants that bound with measurable affinity from this round of engineering are shown in Table A12 and the corresponding human binding affinity by surface plasmon resonance (SPR) using a Biacore™ machine are shown in Table 9B. Cell binding of the clones was also tested in HeLa cells for huCD98hc binding and CHO cells as a negative control.

human CD98hc [3] = target: T2, human CD98hc; test: SPR (Biacore); remark: listed apart in the source
Procedure, shortened: (§1)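 Engineered Fc polypeptides, made as Fc-Fab fusions with anti-BACE1 Fabs, were assessed for Kd toward CD98hc. Measurements were taken by surface plasmon resonance with a Biacore instrument, in a bivalent format or in a monovalent knob/hole format whose CD98hc-binding site sat on the knob chain alone.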

cyno CD98hc = target: T3, cyno CD98hc (cynomolgus monkey); test: SPR (Biacore)
T3 construct: also called cynomolgus CD98hc; cyCD98hc
Procedure, shortened: as §1

Kd [1]: 3600 nM
B1: 6.5.11.5.42.2.d1 (Fc fusion)
chain: APELLGGPSVFLFPPKPKDTLMISRTPEVTCVVVDVSHEDPEVKFNWYVDGVEVHNAKTKPREEQYNSTYRVVSVLTVLHQDWLNGKEYKCKVSNKALPAPIEKTISKAKGQPREPQVYTLPPSRDELTKNQVSLTCLVKGFYPSDIAVEWFSNGSKETNYKTTPPVLDSDGSFFLYSKLTVDKSRWQQGNLFACEVMHEALHNHYTYKLLSLSPGK

Kd [1]: 2000 nM
B2: 6.5.11.5.42.2.d9 (Fc fusion)
chain: B1 chain with N154D, S156A

Kd [1]: 1800 nM
B3: 6.5.11.5.42.2.d11 (Fc fusion)
chain: B1 chain with N154D, T159S

Kd [1]: 8700 nM
B4: 6.5.11.5.42.2.d4 (Fc fusion)
chain: B1 chain with N154D, S156G

Kd [1]: 29000 nM
B5: 6.5.11.5.42.2.d7 (Fc fusion)
chain: B1 chain with N154A

Kd [1]: 4900 nM
B6: 6.5.11.5.42.2.d12 (Fc fusion)
chain: B1 chain with N154D, K157P, T159N

Kd [1]: 4400 nM
B7: 6.5.11.5.42.2.d8 (Fc fusion)
chain: B1 chain with N154D, G155A

binding result [1]: no binding
B8: 6.5.11.5.42.2.d13 (Fc fusion)
chain: B1 chain with N154D, K157P, T159N, L192V

Kd [1]: 3500 nM
B9: 6.5.11.5.42.2.d3 (Fc fusion)
chain: B1 chain with N154D, K157P

Kd [1]: 2000 nM
B10: 6.5.11.5.42.2.d15 (Fc fusion)
chain: B1 chain with N154F, S156Q

Kd [1]: 24000 nM
B11: 6.5.11.5.42.2.d6 (Fc fusion)
chain: B1 chain with N154F

Kd [1]: 3500 nM
B12: 6.5.11.5.42.2.d2 (Fc fusion)
chain: B1 chain with N154D, S156Q

Kd [1]: 9400 nM
B13: 6.5.11.5.42.2.d14 (Fc fusion)
chain: B1 chain with S156Q

Kd [1]: 1800 nM
B14: 6.5.11.5.42.2.d10 (Fc fusion)
chain: B1 chain with N154D, K157T

Kd (human CD98hc [2]): 2300 nM
B15: LLB2-10-8.d20 (Fc fusion)
chain: APELLGGPSVFLFPPKPKDTLMISRTPEVTCVVVDVSHEDPEVKFNWYVDGVEVHNAKTKPREEQYNSTYRVVSVLTVLHQDWLNGKEYKCKVSNKALPAPIEKTISKAKGQPREPQVYTLPPSRDELTKNQVSLTCLVKGFYPSDIAVLWSSHYELENNYKTTPPVLDSDGSFFLYSKLTVDKSRWQQGNVFACNVYHEALHNHYTFKNLALSPGK
notes: Fc part only

Kd (human CD98hc [3]): 2000 nM
Kd (cyno CD98hc): 4500 nM
B16: LLS2.33.2 (Fc fusion)
chain: B15 chain with L150A, S152N, H154K, Y155F, V192L, Y198W, A212S
notes: Fc part only; also called LLB2.33.2

Kd (human CD98hc [3]): 610 nM
Kd (cyno CD98hc): 2800 nM
B17: LLB2-37 (Fc fusion)
chain: B15 chain with S152N, H154Q, Y155F, E156H, V192I, A212L
notes: Fc part only

Kd (human CD98hc [2]): 2000 nM
B18: LLB2-10-8.d21 (Fc fusion)
chain: B15 chain with H154R, Y155F, E156V
notes: Fc part only

Kd (human CD98hc [3]): 1500 nM
Kd (cyno CD98hc): 4700 nM
B19: LLB2.10.8.12.5.N (Fc fusion)
chain: B15 chain with S152N, V192I
notes: Fc part only; changes read against LLB2-10-8

Kd (human CD98hc [3]): 2200 nM
Kd (cyno CD98hc): 8200 nM
B20: LLS2.33.8 (Fc fusion)
chain: B15 chain with L150A, S152N, H154K, Y155F, E156R, V192L, Y198W, A212S
notes: Fc part only; also called LLB2.33.8

Kd (human CD98hc [3]): 500 nM
Kd (cyno CD98hc): 1800 nM
B21: LLB2.10.8.10.1.N (Fc fusion)
chain: B15 chain with S152N, H154R, Y155F, E156V, V192I, A212K
notes: as for B19

Kd (human CD98hc [3]): 270 nM
Kd (cyno CD98hc): 1900 nM
B22: LLB2.10.8.14.3.N (Fc fusion)
chain: B15 chain with S152N, H154R, Y155F, E156V, V192I, Y206R, A212R
notes: as for B19

Kd (human CD98hc [3]): 1200 nM
Kd (cyno CD98hc): 5900 nM
B23: LLS2.43.5 (Fc fusion)
chain: B15 chain with L150M, S152N, H154Q, Y198H, A212S
notes: Fc part only; also called LLB2.43.5

Kd (human CD98hc [3]): 1700 nM
Kd (cyno CD98hc): 6900 nM
B24: LLS2.33.5 (Fc fusion)
chain: B15 chain with L150Q, H154Q, Y198W, A212S
notes: Fc part only; also called LLB2.33.5

Kd (human CD98hc [3]): 450 nM
Kd (cyno CD98hc): 2000 nM
B25: LLB2-30 (Fc fusion)
chain: B15 chain with S152N, H154Q, Y155F, E156L, V192I, A212Q
notes: Fc part only

Kd (human CD98hc [3]): 350 nM
Kd (cyno CD98hc): 2360 nM
B26: LLB2.10.8.14.4.N (Fc fusion)
chain: B15 chain with S152N, H154R, Y155F, E156V, V192I, Y206R
notes: as for B19

Kd (human CD98hc [2]): 1800 nM
B27: LLB2-10-8.d23 (Fc fusion)
chain: B15 chain with H154Q
notes: Fc part only

Kd (human CD98hc [3]): 490 nM
Kd (cyno CD98hc): 2000 nM
B28: LLB2.10.8.10.3.N (Fc fusion)
chain: B15 chain with S152N, H154R, Y155F, E156V, V192I, A212R
notes: as for B19

Kd (human CD98hc [3]): 650 nM
Kd (cyno CD98hc): 2200 nM
B29: LLB2.10.8.10.8.N (Fc fusion)
chain: B15 chain with S152N, H154R, Y155F, E156V, V192I, A212H
notes: as for B19

Kd (human CD98hc [3]): 640 nM
Kd (cyno CD98hc): 2100 nM
B30: LLB2-31 (Fc fusion)
chain: B15 chain with S152N, H154Q, Y155F, E156V, V192I
notes: Fc part only

Kd (human CD98hc [3]): 620 nM
Kd (cyno CD98hc): 2200 nM
B31: LLS2.C.15 (Fc fusion)
chain: B15 chain with L150K, S152N, H154R, Y155F, E156Q, V192L, Y198W, A212S
notes: Fc part only; also called LLB2.C.15

Kd (human CD98hc [3]): 700 nM
Kd (cyno CD98hc): 2700 nM
B32: LLS2.C.4 (Fc fusion)
chain: B15 chain with L150A, S152N, H154R, Y155F, V192I, Y198W, A212S
notes: Fc part only; also called LLB2.C.4

Kd (human CD98hc [3]): 140 nM
Kd (cyno CD98hc): 700 nM
B33: LLB2.10.8.4.12.N (Fc fusion)
chain: B15 chain with S152N, H154R, Y155F, E156V, V192I, Y206W, A212R
notes: as for B19

Kd (human CD98hc [3]): 1200 nM
Kd (cyno CD98hc): 4500 nM
B34: LLB2.10.8.9.11.N (Fc fusion)
chain: B15 chain with S152N, H154R, Y155F, E156V, V192T
notes: Fc part only

Kd (human CD98hc [3]): 1100 nM
Kd (cyno CD98hc): 6200 nM
B35: LLB2-24 (Fc fusion)
chain: APELLGGPSVFLFPPKPKDTLMISRTPEVTCVVVDVSHEDPEVKFNWYVDGVEVHNAKTKPREEQYNSTYRVVSVLTVLHQDWLNGKEYKCKVSNKALPAPIEKTISKAKGQPREPQVYTLPPSRDELTKNQVSLTCLVKGFYPSDIEVLWNTRFVLETNAKTTPPVLDSDGSFFLYSKLTVDKSRWQQGEIFACNVLHEALHNHFTFKNLALSPGK
notes: Fc part only

Kd (human CD98hc [3]): 500 nM
Kd (cyno CD98hc): 2600 nM
B36: LLB2-23 (Fc fusion)
chain: B35 chain with E148V, T153S, T159Q, A161V, F206Y, A212V
notes: Fc part only

Kd (human CD98hc [2]): 5200 nM
B37: LLB2-10-8.d22 (Fc fusion)
chain: B15 chain with H154K, Y155F
notes: Fc part only

Kd (human CD98hc [3]): 1000 nM
Kd (cyno CD98hc): 3500 nM
B38: LLB2.C.3 (Fc fusion)
chain: B15 chain with L150V, S152N, H154Q, Y198W, A212S
notes: Fc part only
